Results: patent US20180036256

How the values were obtained:
GST-LSD1 K114A = GST-LSD1 K114A (UniProt O60341)
GST-LSD1 = GST-LSD1 (UniProt O60341)

Substance: GST-G9A aa786-1210
- methylation at K114 in vitro (methylation assay, Western blot with anti-LSD1 K114me2) (GST-LSD1 K114A): GST-LSD1 but not GST-LSD1 K114A is methylated at K114 by G9A in the presence of SAM
- methylation at K114 in vitro (methylation assay, Western blot with anti-LSD1 K114me2) (GST-LSD1): GST-LSD1 but not GST-LSD1 K114A is methylated at K114 by G9A in the presence of SAM
